The target in data set [1] is T1, OCT4 (human, UniProt Q01860 1-360). The experiment in a line: EMSA; mono-OCT4 complex; 20 fmol probe; Panomics EMSA Gel Shift Kit per manufacturer; OCT4 0.5 mg as printed (likely ug), biotin probe 20 fmol; buffer, pH and temperature not stated. To be noted: protein: commercial; label: biotin at 5' end. In general terms: A gel shift assay detects complexes by their altered migration in electrophoresis.

Data set [2] addresses T1, OCT4. Kind of data set: EMSA; mono- and di-OCT4 complexes; 20 fmol probe; Panomics EMSA Gel Shift Kit per manufacturer; OCT4 0.5 mg as printed (likely ug), biotin probe 20 fmol; buffer, pH and temperature not stated. To be noted: protein: commercial; label: biotin at 5' end.

T1 sequence (Q01860 whole entry): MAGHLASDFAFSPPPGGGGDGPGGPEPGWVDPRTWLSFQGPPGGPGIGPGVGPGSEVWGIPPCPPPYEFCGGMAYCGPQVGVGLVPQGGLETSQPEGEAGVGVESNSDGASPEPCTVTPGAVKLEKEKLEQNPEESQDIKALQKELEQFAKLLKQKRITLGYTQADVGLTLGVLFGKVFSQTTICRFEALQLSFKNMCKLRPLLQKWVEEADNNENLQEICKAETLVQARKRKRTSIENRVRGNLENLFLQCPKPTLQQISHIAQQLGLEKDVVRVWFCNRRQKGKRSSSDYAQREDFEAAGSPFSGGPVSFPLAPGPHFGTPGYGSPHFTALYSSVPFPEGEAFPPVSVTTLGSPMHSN

B1: Biotin-MYC-1173/-1145 WT (OBS2) (dsDNA)
DNA 1: ACAAATGCAATGGGAGTTTATTCATAAC
DNA 2: GTTATGAATAAACTCCCATTGCATTTGT
For B1, the binding result in the data set with OCT4 [1] was “binds”.

B2: Biotin-MYC-1209/-1140 WT (OBS1+OBS2) (dsDNA)
DNA 1: CTGTGCATACATAATGCATAATACATGACTCCCCCCAACAAATGCAATGGGAGTTTATTCATAACGCGCT
DNA 2: AGCGCGTTATGAATAAACTCCCATTGCATTTGTTGGGGGGAGTCATGTATTATGCATTATGTATGCACAG
In the case of B2, the binding result with OCT4 [2] is given as “binds”.

B3: Biotin-MYC-1209/-1166 WT (OBS1) (dsDNA)
DNA 1: CTGTGCATACATAATGCATAATACATGACTCCCCCCAACAAATGC
DNA 2: GCATTTGTTGGGGGGAGTCATGTATTATGCATTATGTATGCACAG
Consider B3, for which, in the data set with OCT4 [2], the binding result is recorded as “binds”.

These data come from paper PMC7224192, “MYC transcription activation mediated by OCT4 as a mechanism of resistance to 13-cisRA-mediated differentiation in neuroblastoma”.
